The target in experiment [1] is wildtype (WT) α-synuclein fibrils (human) (UniProt P37840). The experiment can be described thus: flow-induced dispersion analysis.
In experiment [2] the target is α-synuclein oligomers (human). Kind of experiment: flow-induced dispersion analysis.
The target in experiment [3] is wildtype (WT) α-synuclein fibrils (human) (UniProt P37840). Kind of experiment: native gel or EMSA.
Experiment [4] shares this target. Kind of experiment: SPR. (SPR reads the build-up and loss of mass on a sensor chip optically.)

pKd: −log10 of the molar value.

Consider “BRICHOS-Alexa488 (rh Bri2 BRICHOS R221E labelled with Alexa-488) (from UniProt Q9Y287 113-231) (domain or fragment)”, for which the pKd in experiment [1] was 5.64; in experiment [2], 7.11.
The substance “recombinant human (rh) Bri2 BRICHOS R221E monomer (from UniProt Q9Y287 113-231) (domain or fragment)” returned a percent of soluble, unbound BRICHOS in experiment [3] of 90.6%. For the same substance, in experiment [4], the apparent KD, strong binding of the two-phase model came to 22 nM and the apparent KD, weak binding of the two-phase model amounted to 350000 nM.

As usually defined, the pKd is the Kd on a negative log10 scale, so that one unit is a factor of ten.

The values are drawn from paper PMC11232276.
